Here are results for seven molecules from patent publication EP4480961A1 (Consejo Superior De Investigaciones Científicas, dated 2024).

Where a chain is given by its changes, count along the chain named. Where only a bound is given, the exact number is not on record here.

A word on the Kd: it is the free concentration of one partner at which half of the binding sites on the other are occupied at equilibrium, for simple one-to-one binding.

Assay [1] has as its target T1, soluble recombinant OmpF (outer membrane porin F) from Yersinia ruckeri (Yersinia ruckeri).
T1 construct: also called rOmpF; Y. ruckeri OmpF
Put plainly: BLI, biotinylated chimera on streptavidin tips, soluble rOmpF 0.5-2.3 µM, PBS pH 7.4.

The target in assay [2] is T2, Y. ruckeri OmpF embedded in the outer membrane of E. coli MDS42 ΔompF cells (Yersinia ruckeri).
T2 construct: whole, on cells; Cells were fixed with PFA for flow cytometry; also called OmpF Y. ruckeri expressing strain; specific target
Put plainly: flow cytometry on E. coli expressing Y. ruckeri OmpF, chimera at 0.1 µM and 1 µM, PBS.

The next assay deals with T3, ovalbumin (UniProt P01012 2-386).
T3 construct: also called ovoalbumin
T3 sequence (looked up): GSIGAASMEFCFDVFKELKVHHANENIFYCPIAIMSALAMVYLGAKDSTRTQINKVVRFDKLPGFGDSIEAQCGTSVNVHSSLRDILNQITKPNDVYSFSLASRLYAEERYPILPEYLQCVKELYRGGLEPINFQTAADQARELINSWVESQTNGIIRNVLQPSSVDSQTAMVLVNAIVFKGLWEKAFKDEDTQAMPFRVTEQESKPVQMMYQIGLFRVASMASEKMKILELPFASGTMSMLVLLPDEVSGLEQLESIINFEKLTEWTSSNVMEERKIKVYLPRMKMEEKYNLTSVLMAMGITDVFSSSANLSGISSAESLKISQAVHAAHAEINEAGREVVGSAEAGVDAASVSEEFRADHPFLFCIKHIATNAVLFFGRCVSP
Put plainly: cross-reactivity test, yeast display flow cytometry. In general terms: A flow cytometer gives signals particle by particle.

The target in a further assay is T4, human seroalbumin (human, UniProt P02768 25-609).
T4 construct: also called hSA
The assay is described as above.

For assay [3], the target named is T5, wild-type E. coli OmpF embedded in the membrane of E. coli MDS42 cells (Escherichia coli, UniProt P02931 23-362).
T5 construct: whole, on cells
T5 sequence: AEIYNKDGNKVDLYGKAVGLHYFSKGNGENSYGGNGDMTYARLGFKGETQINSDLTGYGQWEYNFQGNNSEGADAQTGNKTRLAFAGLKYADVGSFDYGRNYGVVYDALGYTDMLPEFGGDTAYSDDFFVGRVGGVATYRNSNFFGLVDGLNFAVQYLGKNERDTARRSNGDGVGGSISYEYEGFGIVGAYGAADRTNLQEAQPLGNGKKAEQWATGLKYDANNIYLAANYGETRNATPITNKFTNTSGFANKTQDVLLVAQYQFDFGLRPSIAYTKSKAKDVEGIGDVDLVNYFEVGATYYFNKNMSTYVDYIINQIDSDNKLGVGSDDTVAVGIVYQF
As to the kind of experiment: flow cytometry titration in fresh water.

Assay [4] concerns the target T2, Y. ruckeri OmpF embedded in the outer …. Put plainly: flow cytometry titration in fresh water.
Assay [5] shares this target. Put plainly: flow cytometry titration in PBS, 5 concentrations 0.001-3 µM, normalised.
For assay [6], the target named is T5, wild-type E. coli OmpF embedded in the …. As to the kind of experiment: flow cytometry titration in PBS, 5 concentrations 0.001-3 µM, […].

T4 sequence (P02768 25-609): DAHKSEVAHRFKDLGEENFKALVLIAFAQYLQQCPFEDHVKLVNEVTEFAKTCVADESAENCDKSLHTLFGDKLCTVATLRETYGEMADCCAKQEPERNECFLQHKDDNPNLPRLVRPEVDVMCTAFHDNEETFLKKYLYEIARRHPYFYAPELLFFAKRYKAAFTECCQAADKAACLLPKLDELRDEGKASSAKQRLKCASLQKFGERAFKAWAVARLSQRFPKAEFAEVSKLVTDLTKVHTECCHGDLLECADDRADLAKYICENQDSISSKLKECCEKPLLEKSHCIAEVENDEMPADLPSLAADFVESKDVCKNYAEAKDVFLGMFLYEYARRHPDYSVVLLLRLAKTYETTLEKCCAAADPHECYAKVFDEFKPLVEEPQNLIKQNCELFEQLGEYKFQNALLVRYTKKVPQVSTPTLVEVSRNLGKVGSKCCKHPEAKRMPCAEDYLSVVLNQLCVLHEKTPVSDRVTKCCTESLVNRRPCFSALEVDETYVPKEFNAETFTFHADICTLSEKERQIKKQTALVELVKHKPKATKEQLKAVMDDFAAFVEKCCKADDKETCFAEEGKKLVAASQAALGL

B1: DBP1-L1 chimeric protein (designed binder)
chain: MADLPQKVSNLSINNKENGGGGGKSSYVPPHLRSRGKPSFERRSPKQKDKVTGGDFFRRAGRQTGNNGGFFGFSKERNGGTSANYNRRGSSNYKSSGNRWVNGKHIPGPKNAKLQKAELFGVHDDPDYHSSGIKFDNYDNIPVDASGKDVPEPILGGRTRGGGGFFNSRNNGSRDYRKHGGNGSFGSTRPRNTGTSNWGSIGGGFRNDNEKNGYGNSNASWWGSATVKFTYQGEEKQVDISKIKMVIRMGQMILFTYDEGGGAMGRGIVSEKDAPKELLQMLEKQ
notes: Biotinylated and immobilised on streptavidin tips for BLI; biotinylated for microscopy and flow cytometry
Turning to B1, in assay [1], the Kd stood at 119 nM. For the same molecule, the “percentage of double positives” value in assay [2] is more than 75%.

B2: DBP1-L2 chimeric protein (designed binder)
chain: B1 chain with M245Y, M249F, M252K, L254M, T256K, M264H, R266S, I268M
notes: Biotinylated and immobilised on streptavidin tips for BLI
In the case of B2, in assay [1], the Kd is 26 nM. Also, the “percentage of double positives” value in assay [2] was more than 75%.

B3: L2 engineered rcSso7d binder (designed binder)
chain: ATVKFTYQGEEKQVDISKIKYVIRFGQKIMFKYDEGGGAHGSGMVSEKDAPKELLQMLEKQ
notes: also called clone L2
As for B3, the binding result in the assay with ovalbumin and in the assay with human seroalbumin was “no binding (tested: 1 µM)” each time.

B4: L1 engineered rcSso7d binder (designed binder)
chain: ATVKFTYQGEEKQVDISKIKMVIRMGQMILFTYDEGGGAMGRGIVSEKDAPKELLQMLEKQ
notes: also called clone L1
With B4, the binding result in the assay with human seroalbumin is on record as “no binding (tested: 1 µM)”.

B5: mHP1α-L1 chimeric protein (designed binder)
chain: MGKKTKRTADSSSSEDEEEYVVEKVLDRRMVKGQVEYLLKWKGFSEEHNTWEPEKNLDCPELISEFMKKYKKMKEGENNKPREKSEGNKRKSSFSNSADDIKSKKKREQSNDIARGFERGLEPEKIIGATDSCGDLMFLMKWKDTDEADLVLAKEANVKCPQIVIAFYEERLTWHAYPEDAENKEKESAKSGSATVKFTYQGEEKQVDISKIKMVIRMGQMILFTYDEGGGAMGRGIVSEKDAPKELLQMLEKQ
notes: also called mHP1-L1
Regarding B5, the Kd came to 130 nM in assay [3] and 140 nM in assay [4].

B6: mHP1α-R2 chimeric protein (designed binder)
chain: B5 chain with I216M, M218N, M221R, L223R, T225M, M233I, R235L, I237E
notes: also called mHP1-R2
As to B6, the Kd was 280 nM in assay [3], 300 nM in assay [4], 75 nM in assay [5] and 82 nM in assay [6].

B7: mHP1α-L2 chimeric protein (designed binder)
chain: B5 chain with M214Y, M218F, M221K, L223M, T225K, M233H, R235S, I237M
notes: Biotinylated for flow cytometry
As for B7, the “percentage of double positives” value in assay [2] is more than 75%.
